From patent US20190262327A1, “COMBINATION OF A BACE INHIBITOR AND AN ANTIBODY OR ANTIGEN-BINDING FRAGMENT FOR THE TREATMENT OF A DISORDER ASSOCIATED WITH THE ACCUMULATION OF AMYLOID BETA” (ASTRAZENECA AB, priority 2016, published 2019) come the findings set out here.

Data set [1] has as its system human Abeta peptides (Abeta 1-42, Abeta 1-43, Abeta 1-16, Abeta 12-28, Abeta 17-42, Abeta pyro-3-42, Abeta pyro-11-42). Description: HTRF competition binding experiments with panel of Abeta peptides. Conditions: competitor 10 uM down to 0.17 nM; antibody 0.5 nM. The method, then: The specificity of Abet0380-GL IgG1-TM was examined in competition binding experiments. In brief Abet0380-GL IgG1-TM (0.5 nM) was incubated (1 hr at room temperature) with a range of different concentrations (10 uM down to 0.17 nM) of a panel of full length, truncate and pyro human Abeta peptides (Abeta 1-42, Abeta 1-43, Abeta 1-16, Abeta 12-28, Abeta 17-42, Abeta pyro-3-42, or Abeta pyro-11-42).
Following the incubation between Abet0380-GL IgG1-TM and the Abeta peptides N-terminal biotin Abeta 1-42 (1.5 nM) was added followed by a europium cryptate labelled anti-human Fc antibody (0.8 nM) (CisBio Cat. No. 61HFCKLB) and streptavidin-XL^entl (5 nM) (CisBio Cat. No. 611SAXLB). The assay was then incubated for a further 2 hrs at room temperature before reading on an Envision plate reader (PerkinElmer) using a standard homogeneous time resolved fluorescence (HTRF) read protocol. In the absence of competition, the interaction of N-terminal biotin Abeta 1-42 with Abet0380-GL IgG1-TM (in complex with streptavidin-XL^entl and europium cryptate labelled anti-human Fc antibody, respectively) could then be measured via time resolved fluorescence resonance energy transfer (TR-FRET) due to the proximity of the europium cryptate donor and XL^665 acceptor fluorophores. […]
On the technique in general: Time-resolved FRET reads energy transfer from a long-lived donor to a nearby acceptor.

For data set [2], the system named is Amyloid beta 1-40 peptide. The data set is described as follows: Total Amyloid beta 1-40 peptide in rat brain homogenates (ELISA). It counts as in vivo. The conditions noted are these: Sprague-Dawley rats, 0.25-10 mg/kg weekly over 14 days. The method, then:
[…] Dosing solutions were made just before dosing. Animals were anaesthetized at the time indicated and cerebrospinal fluid (CSF) was aspirated from the cistema magna. CSF samples were centrifuged for 10 minutes at approximately 3000× g at 4° C. within 20 minutes of sampling to remove cells or debris. Samples were then frozen on dry ice and stored at −70° C. for subsequent analysis.
Animals were sacrificed by decapitation, brain tissue was dissected and Amyloid beta peptides were extracted from brain tissue in diethylamine (DEA; Fluka. Sigma. UK; cat: 31729). Briefly, frozen brain tissue was homogenized in 0.2% DEA and 50 mM NaCl (Merck, USA: cat: 1.06404.1000). Brain homogenates were ultracentrifuged at 133,000×g, for 1 hour. Recovered supernatants were neutralized to pH 8.0 with 2 M Tris-HCl (TRIZMA®-hydrochloride; Sigma, UK; cat: 93363) and stored at −70° C. until analysis. Animal experimentations were performed in accordance with relevant guidelines and regulations provided by the Swedish Board of Agriculture. […]
Measurement of total Amyloid beta 1-40 peptide in rat brain homogenates was performed using the mouse Amyloid beta (1-40) colorimetric ELISA kit (Invitrogen, UK; cat: KMB3481). […] To stop the reaction, 100 μl of Stop Solution was added to each well and the plate was read within 2 hours at an absorbance of 450 nm. […]
On the technique in general: An ELISA detects its analyte on a solid surface through an enzyme-linked reagent.

In data set [3] the test system is Amyloid plaques. Description: In vitro immunohistochemistry on Tg2576 mouse brain sections. From the text:
Briefly, the lead antibodies were screened on human Alzheimer's Disease brain sections and Tg2576 mouse brain sections to identify anti-Amyloid beta 1-42 antibodies that bound to Amyloid plaques in vitro.
In these experiments, human brain tissue was isolated from the frontal cortex of two individuals with severe Alzheimer's Disease (ApoE genotype 3/3, Braak stage 6 and ApoE genotype 4/3, Braak stage 5). As a control, equivalent tissue was isolated from one non-dementia individual (ApoE genotype 3/3, Braak stage 1). Mouse brain tissue was isolated from Tg2576 mice at an age of 15 months (2 mice) and 22 months (2 mice). Antibodies were tested at concentrations of 2, 5, 10 and 20 ug ml^−1.

B1: Abet0380-GL IgG1-TM: germlined Abet0380; VH SEQ ID NO: 524, VL SEQ ID NO: 533; human IgG1 triple mutant format (antibody, listed as Homo sapiens, V domains shown)
VH: EVQLLESGGGLVQPGGSLRLSCAASMGNFNYQTMWWVRQAPGKGLEWVSVIGKTNENIAYADSVKGRFTISRDNSKNTLYLQMNSLRAEDTAVYYCAREWMDHSRPYYYYGMDVWGQGTLVTVSS
VL: SYELTQPPSVSVSPGQTASITCSGHNLEDKFASWYQQKPGQSPVLVIYRDDKRPSGIPERFSASNSGHTATLTISGTQAMDEADYYCSSQDTVTRVFGGGTKLTVL
modifications: human IgG1 triple mutant constant region; /note=“Abet0380-GL”
notes: germlined Abet0380; human IgG1 triple mutant format
In the case of B1, the “inhibition of antibody : N-terminal Biotin Abeta 1-42 binding by Abeta 1-16 or Abeta 12-28” value in data set [1] is given as “No inhibition”. In addition, in data set [2], the “effect on total Amyloid beta 1-40 peptide in brain tissue” value was “unaffected”. For the same molecule, the “core plaques (CP) staining score” value in data set [3] (Tg2576 brain sections) was determined as 4. In data set [3] (Tg2576 mouse brain sections, 22 month old mice, 20 μg/ml), this molecule gave a plaque recognition score of 4.
